Assay results as given in US5747275, “Protein kinase required for RAS signal transduction” (The Regents of the University of California, dated 1998).

Legend:
[1] = biological target: Drosophila Ras1 (Drosophila, UniProt P08646); test: yeast two-hybrid system or bacterially-expressed fusion proteins
[2] = biological target: Dsor1 (D-MEK) (Drosophila, UniProt Q24324); test: yeast two-hybrid

binding result [1]: no binding | binding result [2]: no binding
B1: Drosophila melanogaster kinase suppressor of ras (Ksr) (enzyme)
chain: MSSNNNAPASAPDTGSTNANDPISGSLSVDSNLVIIQDMIDLSANHLEGLRTQCAISSTLTQQEIRCLESKLVRYFSELLLAKMRLNERIPANGLVPHTTGNELRQWLRVVGLSQGTLTACLARLTTLEQSLRLSDEEIRQLLADSPSQREEEELRRLTRAMQNLRKCMESLESGTAASNNDPEQWHWDSWDRPTHIHRGSVGNIGLGNNSTASPRTHHRQHGVKGKNSALANSTNFKSGRQSPSATEELNSTQGSQLTLTLTPSPPNSPFTPSSGLSSSLNGTPQRSRGTPPPARKHQTLLSQSHVQVDGEQLARNRLPTDPSTDSHSSTSSDIFVDPNTNASSGGSSSNVLMVPCSPGVGHVGMGHAIKHRFTKALGFMATCTLCQKQVFHRWMKCTDCKYICHKSCAPHVPPSCGLPREYVDEFRHIKEQGGYASLPHVHGAAKGSPLVKKSTLGKPLHQQHGDSSSPSSSCTSSTPSSPALFQQRERELDQAGSSSSANLLPTPSLGKHQPSQFNFPNVTVTSSGGSGGVSLISNEPVPEQFPTAPATANGGLDSLVSSSNGHMSSLIGSQTSNASTAATLTGSLVNSTTTTSTCSFFPRKLSTAGVDKRTPFTSECTDTHKSNDSDKTVSLSGSASTDSDRTPVRVDSTEDGDSGQWRQNSISLKEWDIPYGDLLLLERIGQGRFGTVHRALWHGDVAVKLLNEDYLQDEHMLETFRSEVANFKNTRHENLVLFMGACMNPPYLAIVTSLCKGNTLYTYIHQRREKFAMNRTLLIAQQIAQGMGYLHAREIIHKDLRTKNIFIENGKVIITDFGLFSSTKLLYCDMGLGVPHNWLCYLAPELIRALQPEKPRGECLEFTPYSDVYSFGTVWYELICGEFTFKDQPAESIIWQVGRGMKQSLANLQSGRDVKDLLMLCWTYEKEHRPQFARLLSLLEHLPKKRLARSPSHPVNLSRSAESVF
